Assay results: article PMC4676693

What was measured:
Experiment in all cases: SPR; Biacore T200; anti-His antibody amine-coupled on a CM5 chip captures the His-tagged receptor (100 nM FcγRIa, 300 nM FcγRIIa_R131 and FcγRIIb, 200 nM FcγRIIIa_V158, 200 nM FcRn); IgG1 glycovariant, Fc-fragment or pre-incubated IgG1 complex injected as analyte (FcγRI 100 nM, FcγRIIa/b 300 nM, FcγRIIIa 200 nM); non-kinetic comparison, WT set as 100%; HBS-N (10 mM HEPES, pH 7.4, 150 mM NaCl)
[1] = target: His-tagged FcγRIIIa_V158 (human)
[2] = target: His-tagged FcγRIIa_R131 (human)
[3] = target: His-tagged FcγRIIb (human) (UniProt P31994)
UniProt P31994, sequence (P31994 43-310): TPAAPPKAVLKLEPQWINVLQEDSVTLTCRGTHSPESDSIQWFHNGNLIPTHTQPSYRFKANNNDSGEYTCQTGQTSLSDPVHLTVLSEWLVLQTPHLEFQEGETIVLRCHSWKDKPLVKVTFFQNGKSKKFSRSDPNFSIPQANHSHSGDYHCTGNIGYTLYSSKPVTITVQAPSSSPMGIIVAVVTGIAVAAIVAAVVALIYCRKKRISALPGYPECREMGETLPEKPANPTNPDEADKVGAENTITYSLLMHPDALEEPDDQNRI

[4] = target: His-tagged FcγRI (human) (UniProt P12314)
UniProt P12314, sequence (P12314 16-374): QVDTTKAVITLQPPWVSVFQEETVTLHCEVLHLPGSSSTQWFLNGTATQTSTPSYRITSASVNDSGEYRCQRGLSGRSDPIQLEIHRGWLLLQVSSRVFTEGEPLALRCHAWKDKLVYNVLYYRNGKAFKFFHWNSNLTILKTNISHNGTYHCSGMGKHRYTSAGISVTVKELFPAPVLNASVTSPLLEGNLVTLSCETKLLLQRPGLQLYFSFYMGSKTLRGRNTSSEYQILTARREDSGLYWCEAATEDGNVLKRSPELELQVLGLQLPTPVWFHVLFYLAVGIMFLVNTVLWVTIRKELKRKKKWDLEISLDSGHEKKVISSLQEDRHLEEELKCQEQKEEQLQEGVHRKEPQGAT

| Substance | percent binding (WT = 100%) [1] [%] | percent binding (WT = 100%) [2] [%] | percent binding (WT = 100%) [3] [%] | percent decrease in binding against WT [4] [%] |
| --- | --- | --- | --- | --- |
| G0 IgG1 glycovariant (antibody) | 75 |  |  |  |
| G1+1SA IgG1 glycovariant (antibody) | 75 |  |  |  |

The next lines start with the values.

| percent binding (WT = 100%) [1] [%] | percent binding (WT = 100%) [2] [%] | percent binding (WT = 100%) [3] [%] | percent decrease in binding against WT [4] [%] | Substance |
| --- | --- | --- | --- | --- |
| 75 |  |  |  | G1 IgG1 glycovariant (antibody) |
| 70 | 45 | 65 |  | M3 IgG1 glycovariant (antibody) |
|  |  |  | 40 | deglycosylated IgG1 glycovariant (antibody) |
